Test results as given in the supplement of paper PMC7877785.
± gives the uncertainty stated by the source.

Test: self-splicing fitness, log relative to wild type (ln ratio); higher = more splicing; Tetrahymena group I intron in knt gene, E. coli kanamycin selection, DiMSum; sequences stand for … in CUCUCU…GGAGGGAAAAGUUAUCAGGCAUGCACCUGGUAGCUAGUCUUUAAACCAAUAGAUUGCAUCGGUUUAAAAGGCAAGACCGUCAAAUUGCGGGAAAGGGGUCAACAGCCGUUCAGUACCAAGUCUCAGGGGAAACUUUGAGAUGGCCUUGCAAAGGGUAUGGUAAUAAGCUGACGGACAUGGUCCUAACCACGCAGCCAAGUCCUAAGUCAACAGAUCUUCUGUUGAUAUGGAUGCAGUUCACAGACUAAAUGUCGGUCGGGGAAGAUGUAUUCUUCUCAUAAGAUAUAGUCGGACCUCUCCUUAAUGGGAGCUAGCGGAUGAAGUGAUGCAACACUGGAGCCGCUGGGAACUAAUUUGUAUGCGAAAGUAUAUUGAUUAGUUUUGGAGUACUCGUGGUCG
In short: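 Colonies from six replicate transformations of E. coli BL21(DE3) were pooled and amplicon-sequenced on an Illumina HiSeq 2500. The library placed an intron with all eight P1ex-region nucleotides randomised inside the knt kanamycin-resistance gene on pET-22b(+), and cells grew overnight at 37°C or 30°C on LB agar with or without 25 μg/mL kanamycin (plus 100 μg/mL carbenicillin, 50 μM IPTG, 0.2% rhamnose). Fitness is the DiMSum error-weighted combination of wild-type-normalised replicate fold changes, kanamycin versus none.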

Sequence	self-splicing fitness (ln) (30 °C)	self-splicing fitness (ln) (37 °C)
UUAAAGCAAUAUUACGAACG	0.275 ± 0.12	0.794 ± 0.16
UUAAAGCAAUAUUACGAACU	-0.567 ± 0.11	-0.0402 ± 0.12
UUAAAGCAAUAUUACGACUC	-0.15 ± 0.12	-0.0274 ± 0.15
UUAAAGCAAUAUUACGAGAG	-0.988 ± 0.061	-0.259 ± 0.11
UUAAAGCAAUAUUACGCCGG	-0.245 ± 0.12	0.421 ± 0.18
UUAAAGCAAUAUUACGCGCU	-0.179 ± 0.1	-0.107 ± 0.11
UUAAAGCAAUAUUACGCGGA	-0.811 ± 0.097	0.458 ± 0.1
UUAAAGCAAUAUUACGCGGG	-0.482 ± 0.11	-1.29 ± 0.13
UUAAAGCAAUAUUACGCGUA	-0.515 ± 0.12	0.118 ± 0.14
UUAAAGCAAUAUUACGCUCG	0.194 ± 0.12	0.654 ± 0.15
UUAAAGCAAUAUUACGGCCG	0.199 ± 0.14	0.0811 ± 0.16
UUAAAGCAAUAUUACGGGUA	-0.431 ± 0.069	0.283 ± 0.08
UUAAAGCAAUAUUACGGUAC	-2.58 ± 0.22	-1.06 ± 0.22
UUAAAGCAAUAUUACGUUAA	-0.426 ± 0.071	0.14 ± 0.091
UUACAGCAAUAUUACGAAUG	-1.46 ± 0.094	-0.991 ± 0.14
UUACAGCAAUAUUACGCAAU	-1.23 ± 0.15	-2.23 ± 0.4
UUACAGCAAUAUUACGCACC	-2.69 ± 0.21	-0.981 ± 0.23
UUACAGCAAUAUUACGCACG	-1.13 ± 0.12	0.579 ± 0.13
UUACAGCAAUAUUACGCCAU	-2.91 ± 0.25	-2.48 ± 0.27
UUACAGCAAUAUUACGCCUC	-3.31 ± 0.38	-2.03 ± 0.38
UUACAGCAAUAUUACGCGCC	-2.36 ± 0.14	-0.896 ± 0.2

Sequence	self-splicing fitness (ln) (30 °C)	self-splicing fitness (ln) (37 °C)
UUACAGCAAUAUUACGCUAU	-3.74 ± 0.25	-2.33 ± 0.21
UUACAGCAAUAUUACGGAAC	-2.88 ± 0.26	-1.88 ± 0.42
UUACAGCAAUAUUACGGACA	-1.02 ± 0.11	-0.885 ± 0.13
UUACAGCAAUAUUACGGAUA	-2.25 ± 0.21	-0.725 ± 0.12
UUACAGCAAUAUUACGGAUC	-4.12 ± 0.34	-2.26 ± 0.2
UUACAGCAAUAUUACGGCCA	-1.02 ± 0.12	0.128 ± 0.13
UUACAGCAAUAUUACGGCGC	-2.88 ± 0.18	-0.508 ± 0.13
UUACAGCAAUAUUACGUCGA	-0.899 ± 0.087	0.0863 ± 0.093
UUACAGCAAUAUUACGUGAA	-1.16 ± 0.054	-0.338 ± 0.066
UUAGAGCAAUAUUACGACUG	-1.13 ± 0.096	0.345 ± 0.14
UUAGAGCAAUAUUACGACUU	-1.32 ± 0.13	-1.77 ± 0.19
UUAGAGCAAUAUUACGAGCA	-2.27 ± 0.42	-1.09 ± 0.32
UUAGAGCAAUAUUACGAGUC		-2.53 ± 0.49
UUAGAGCAAUAUUACGAUAG	-0.594 ± 0.1	-0.147 ± 0.14
UUAGAGCAAUAUUACGCAUG	-1.12 ± 0.11	-0.298 ± 0.12
UUAGAGCAAUAUUACGCGCA	-0.808 ± 0.12	-0.112 ± 0.16
UUAGAGCAAUAUUACGCUAC	-2.9 ± 0.41	
UUAGAGCAAUAUUACGCUGU	-3.47 ± 0.36	-1.56 ± 0.21
UUAGAGCAAUAUUACGGUAC	-3.85 ± 0.26	-2.79 ± 0.4
UUAGAGCAAUAUUACGGUGU	-2.05 ± 0.35	-2.19 ± 0.3
UUAGAGCAAUAUUACGUACU	-3.2 ± 0.34	-1.81 ± 0.31
